Publication PMC11094075

Molecular target: HA-Ago2K212A, in Ago2-knockout A549 and HCC1806 cells (human) (UniProt Q9UKV8)
Test: co-IP; Ago2-knockout A549 and HCC1806 cells expressing HA-Ago2Wt, HA-Ago2K212A or HA-Ago2K212R; IP with anti-HA, blot for endogenous CAV1; ratio pCAV1/pHA; vehicle or TM (10 µM)

Caveolin-1 (CAV1), endogenous (from UniProt Q03135 1-178) (natural protein)
percent decrease of co-precipitated CAV1 per precipitated HA-Ago2 (pCAV1/pHA) against HA-Ago2Wt: 46%
